From PMC4557121 (2015)

B1: A2 [not stated] / purified TRB3 protein [not stated] (parent complex)
chain 1: GGWLTRLLQTK
chain 2: MRATPLAAPAGSLSRKKRLELDDNLDTERPVQKRARSGPQPRLPPCLLPLSPPTAPDRATAVATASRLGPYVLLEPEEGGRAYQALHCPTGTEYTCKVYPVQEALAVLEPYARLPPHKHVARPTEVLAGTQLLYAFFTRTHGDMHSLVRSRHRIPEPEAAVLFRQMATALAHCHQHGLVLRDLKLCRFVFADRERKKLVLENLEDSCVLTGPDDSLWDKHACPAYVGPEILSSRASYSGKAADVWSLGVALFTMLAGHYPFQDSEPVLLFGKIRRGAYALPAGLSAPARCLVRCLLRREPAERLTATGILLHPWLRQDPMPLAPTRSHLWEAAQVVPDGLGLDEAREEEGDREVVLYG

Variants of: B1
Experiment: SPR; TRB3 immobilized on CM5 sensor chips

| Variant | Kd [µM] |
| --- | --- |
| chain 1 GGWATRLLQTK [chain 1 L4A] | 4.32 |
| chain 1 AGWLTRLLQTK [chain 1 G1A] | 1.64 |
| chain 1 GGWLTRALQTK [chain 1 L7A] | 11.8 |
| chain 1 GGWLARLLQTK [chain 1 T5A] | 0.11 |
| chain 1 GGWLTALLQTK [chain 1 R6A] | 0.000142 |

Continued by falling Kd, values first:

| Kd [µM] | Variant |
| --- | --- |
| 35.6 | chain 1 GGWLTRLLATK [chain 1 Q9A] |
| 3.59 | chain 1 GGALTRLLQTK [chain 1 W3A] |
| 0.402 | chain 1 GAWLTRLLQTK [chain 1 G2A] |
| 0.381 | chain 1 GGWLTRLLQAK [chain 1 T10A] |
| 0.0731 | chain 1 GGWLTRLLQTA [chain 1 K11A] |
